Here are results for four molecules from paper PMC9482650, “Quantitative fragmentomics allow affinity mapping of interactomes” (Nature Communications, 2022).

Some targets named below: GRIP2_4, Q9C0E4; Inadl_2, Q8NI35; GRID2IP_2, A4D2P6; GOPC, Q9HD26; GRASP, Q7Z6J2; MAGI1_2, Q96QZ7; DLG2_3, Q15700; Inadl_1, Q8NI35; TJP1_2, Q07157; DLG5_1, Q8TDM6; LAP2, Q96RT1; SCRIB_2, Q14160.
What all share (assay): holdup assay
Common to all, as to set-up: key: below the threshold = too weak to quantify, mostly under pKd 3.1 to 4
Holding throughout (details): plain residues with an end cap or a label only (N-terminal biotin on a linker: ado-ado)

A further assay concerns the target T1, ARHGEF11, O15085.
T1 sequence (O15085 42-136, limits assumed, looked up): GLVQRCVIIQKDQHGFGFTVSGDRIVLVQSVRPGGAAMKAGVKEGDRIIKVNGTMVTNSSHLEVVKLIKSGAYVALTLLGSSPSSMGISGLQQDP

For the next assay, the target named is T2, MPP6, Q9NZW5.
T2 sequence (Q9NZW5 125-219, limits assumed, looked up): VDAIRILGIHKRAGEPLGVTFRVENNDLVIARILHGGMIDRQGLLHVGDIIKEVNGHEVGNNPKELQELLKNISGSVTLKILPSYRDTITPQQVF

In another assay the target is T3, DLG3_3, Q92796.
T3 sequence (Q92796 374-475, limits assumed, looked up): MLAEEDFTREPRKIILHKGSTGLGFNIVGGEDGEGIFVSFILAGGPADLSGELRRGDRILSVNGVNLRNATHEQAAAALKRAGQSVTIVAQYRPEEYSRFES

For the next assay, the target named is T4, PARD3B_1, Q8TEW8.
T4 sequence (Q8TEW8 196-299, limits assumed, looked up): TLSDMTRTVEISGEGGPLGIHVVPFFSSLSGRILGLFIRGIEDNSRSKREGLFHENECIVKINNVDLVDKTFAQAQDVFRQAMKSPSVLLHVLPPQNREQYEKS

The next assay has as its target T5, APBA1_1, Q02410.
T5 sequence (Q02410 651-752, limits assumed, looked up): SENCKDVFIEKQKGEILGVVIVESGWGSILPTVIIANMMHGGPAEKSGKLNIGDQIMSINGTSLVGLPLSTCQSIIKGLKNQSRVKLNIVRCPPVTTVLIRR

A further assay deals with T6, HTRA3, P83110.
T6 sequence (P83110 354-453, limits assumed, looked up): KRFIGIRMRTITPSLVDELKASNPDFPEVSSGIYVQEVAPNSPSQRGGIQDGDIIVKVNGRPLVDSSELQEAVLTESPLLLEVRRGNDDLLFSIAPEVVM

The target of another assay is T7, APBA2_2, Q99767.
T7 sequence (Q99767 654-744, limits assumed, looked up): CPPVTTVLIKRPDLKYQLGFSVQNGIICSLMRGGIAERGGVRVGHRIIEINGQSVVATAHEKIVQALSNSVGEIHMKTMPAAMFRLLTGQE

In the next assay the target is T8, DLG3_2, Q92796.
T8 sequence (Q92796 221-321, limits assumed, looked up): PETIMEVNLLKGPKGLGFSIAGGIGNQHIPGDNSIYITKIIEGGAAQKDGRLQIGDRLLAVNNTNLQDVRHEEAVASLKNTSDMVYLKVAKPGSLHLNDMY

A further assay deals with T9, GRIP1_2, Q9Y3R0.
T9 sequence (Q9Y3R0 145-248, limits assumed, looked up): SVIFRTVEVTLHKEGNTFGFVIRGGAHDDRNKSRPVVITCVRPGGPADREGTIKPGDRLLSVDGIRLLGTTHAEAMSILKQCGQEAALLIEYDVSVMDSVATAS

In another assay the target is T10, MPDZ_12, O75970.
T10 sequence (O75970 1857-1958, limits assumed, looked up): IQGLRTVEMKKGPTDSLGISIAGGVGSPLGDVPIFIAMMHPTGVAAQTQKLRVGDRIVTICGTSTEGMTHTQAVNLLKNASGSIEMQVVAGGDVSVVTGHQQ

Another assay has as its target T11, GRIP1_3, Q9Y3R0.
T11 sequence (Q9Y3R0 247-346, limits assumed, looked up): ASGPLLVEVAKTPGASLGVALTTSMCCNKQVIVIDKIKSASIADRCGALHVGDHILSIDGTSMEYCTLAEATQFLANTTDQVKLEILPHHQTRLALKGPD

The target in another assay is T12, SHANK1, Q9Y566.
T12 sequence (Q9Y566 658-767, limits assumed, looked up): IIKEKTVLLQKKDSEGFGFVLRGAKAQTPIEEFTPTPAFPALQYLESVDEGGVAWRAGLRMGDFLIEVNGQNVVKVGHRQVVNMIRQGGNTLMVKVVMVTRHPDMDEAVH

A word on the pKd: it is the negative decadic logarithm of the Kd, by convention in mol/L.

Sequence of Inadl_2, Q8NI35 (Q8NI35 238-335): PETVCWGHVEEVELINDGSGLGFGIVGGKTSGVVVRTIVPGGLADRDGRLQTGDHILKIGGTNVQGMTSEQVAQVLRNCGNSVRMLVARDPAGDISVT
Sequence of GRID2IP_2, A4D2P6 (A4D2P6 272-370): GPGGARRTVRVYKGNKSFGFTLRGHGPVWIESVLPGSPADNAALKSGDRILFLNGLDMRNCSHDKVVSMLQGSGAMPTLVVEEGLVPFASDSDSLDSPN
Sequence of GRASP, Q7Z6J2 (Q7Z6J2 96-193): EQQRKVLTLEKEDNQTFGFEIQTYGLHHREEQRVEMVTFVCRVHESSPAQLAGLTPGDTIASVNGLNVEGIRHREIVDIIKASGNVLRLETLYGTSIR
Sequence of LAP2, Q96RT1 (Q96RT1 other isoform, or with tags, fused parts or gaps): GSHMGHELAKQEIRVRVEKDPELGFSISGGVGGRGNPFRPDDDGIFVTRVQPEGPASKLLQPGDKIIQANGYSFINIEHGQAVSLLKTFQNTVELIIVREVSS
Sequence of SCRIB_2, Q14160 (Q14160 857-960): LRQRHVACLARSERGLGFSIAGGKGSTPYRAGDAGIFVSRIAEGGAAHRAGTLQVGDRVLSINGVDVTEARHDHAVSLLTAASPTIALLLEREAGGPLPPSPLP
Sequence of GRIP2_4, Q9C0E4 (Q9C0E4 446-548): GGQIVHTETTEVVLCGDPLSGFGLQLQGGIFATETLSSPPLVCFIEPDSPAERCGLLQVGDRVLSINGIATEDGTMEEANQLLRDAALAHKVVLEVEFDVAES
Sequence of Inadl_1, Q8NI35 (Q8NI35 113-229): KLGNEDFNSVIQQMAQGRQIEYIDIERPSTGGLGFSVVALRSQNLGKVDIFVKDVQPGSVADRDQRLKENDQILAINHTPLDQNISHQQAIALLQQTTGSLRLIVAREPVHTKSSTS
Sequence of MAGI1_2, Q96QZ7 (Q96QZ7 456-580): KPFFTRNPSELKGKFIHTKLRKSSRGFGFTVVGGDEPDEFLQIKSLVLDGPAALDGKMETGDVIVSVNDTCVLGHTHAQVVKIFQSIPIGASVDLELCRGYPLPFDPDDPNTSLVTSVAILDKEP
Sequence of DLG5_1, Q8TDM6 (Q8TDM6 617-713): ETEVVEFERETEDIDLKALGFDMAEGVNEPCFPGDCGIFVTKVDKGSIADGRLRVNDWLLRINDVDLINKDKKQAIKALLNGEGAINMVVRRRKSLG
Sequence of TJP1_2, Q07157 (Q07157 181-274): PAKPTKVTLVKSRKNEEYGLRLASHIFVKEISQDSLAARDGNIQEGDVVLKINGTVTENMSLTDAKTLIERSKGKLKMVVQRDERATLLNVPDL

B1: PLEKHH2, Q8IVE3 (peptide)
chain: SRPTKGPTLL
For the molecule B1, the negative-log Kd (pKd) in the assay with ARHGEF11, O15085 is 3.85; in the assay with GRIP2_4, Q9C0E4, “below the threshold”; with Inadl_2, Q8NI35 it was “below the threshold”; with MPP6, Q9NZW5 it was “below the threshold”; in the assay with GRID2IP_2, A4D2P6 it was 4.48; in the assay with GOPC, Q9HD26 it was “below the threshold”. In addition, the pKd entry was “below the threshold” with DLG3_3, Q92796; 5.22 in the assay with GRASP, Q7Z6J2; 4.25 with MAGI1_2, Q96QZ7; 4.41 in the assay with PARD3B_1, Q8TEW8; “below the threshold” in the assay with APBA1_1, Q02410; “below the threshold” with DLG2_3, Q15700. In addition, the pKd entry in the assay with HTRA3, P83110 was “below the threshold”; with APBA2_2, Q99767 it was “below the threshold”; with Inadl_1, Q8NI35, “below the threshold”; with TJP1_2, Q07157 it was “below the threshold”; in the assay with DLG3_2, Q92796, “below the threshold”; in the assay with GRIP1_2, Q9Y3R0 it was “below the threshold”. Further, the pKd result was “below the threshold” with MPDZ_12, O75970; “below the threshold” with DLG5_1, Q8TDM6; “below the threshold” in the assay with LAP2, Q96RT1; “below the threshold” with GRIP1_3, Q9Y3R0; “below the threshold” with SCRIB_2, Q14160; “below the threshold” in the assay with SHANK1, Q9Y566.

B2: SLC1A4, P43007 (peptide)
chain: PELESKESVL
With B2, the pKd was 3.94 with ARHGEF11, O15085; “below the threshold” with GRIP2_4, Q9C0E4; “below the threshold” with Inadl_2, Q8NI35; “below the threshold” with MPP6, Q9NZW5; 3.91 with GRID2IP_2, A4D2P6; 3.74 with GOPC, Q9HD26. Besides, the pKd entry with DLG3_3, Q92796 was “below the threshold”; with GRASP, Q7Z6J2, 3.87; in the assay with MAGI1_2, Q96QZ7, “below the threshold”; with PARD3B_1, Q8TEW8, 4.21; with APBA1_1, Q02410, “below the threshold”; in the assay with DLG2_3, Q15700 it was “below the threshold”. In addition, the negative-log Kd (pKd) entry is “below the threshold” with HTRA3, P83110; “below the threshold” with APBA2_2, Q99767; “below the threshold” in the assay with Inadl_1, Q8NI35; “below the threshold” with TJP1_2, Q07157; 3.79 with DLG3_2, Q92796; “below the threshold” with GRIP1_2, Q9Y3R0. Further, the pKd result with MPDZ_12, O75970 is “below the threshold”; in the assay with DLG5_1, Q8TDM6, “below the threshold”; with LAP2, Q96RT1, 3.55; with GRIP1_3, Q9Y3R0 it was “below the threshold”; in the assay with SCRIB_2, Q14160, “below the threshold”; in the assay with SHANK1, Q9Y566, “below the threshold”.

B3: BCR, P11274 (peptide)
chain: RQSILFSTEV
Consider B3, for which the pKd with ARHGEF11, O15085 was 5.19; in the assay with GRIP2_4, Q9C0E4 it was “below the threshold”; with Inadl_2, Q8NI35 it was “below the threshold”; with MPP6, Q9NZW5, “below the threshold”; with GRID2IP_2, A4D2P6 it was 4.3; with GOPC, Q9HD26 it was 4.5. Further, the pKd with DLG3_3, Q92796 was 3.86; with GRASP, Q7Z6J2, 5.04; with MAGI1_2, Q96QZ7, 3.91; with PARD3B_1, Q8TEW8, “below the threshold”; in the assay with APBA1_1, Q02410 it was “below the threshold”; in the assay with DLG2_3, Q15700 it was 4. The negative logarithm of the Kd (pKd) with HTRA3, P83110 is 3.63; with APBA2_2, Q99767, “below the threshold”; in the assay with Inadl_1, Q8NI35, 3.88; with TJP1_2, Q07157, 3.62; in the assay with DLG3_2, Q92796, 4.79; with GRIP1_2, Q9Y3R0, “below the threshold”. The pKd with MPDZ_12, O75970 is 4.41; with DLG5_1, Q8TDM6 it was “below the threshold”; with LAP2, Q96RT1, 4.39; in the assay with GRIP1_3, Q9Y3R0, “below the threshold”; in the assay with SCRIB_2, Q14160, 4.54; with SHANK1, Q9Y566, 4.58.

B4: FAT1, Q14517 (peptide)
chain: PLDSQQHTEV
Regarding B4, the pKd with ARHGEF11, O15085 was 4.67; in the assay with GRIP2_4, Q9C0E4, “below the threshold”; with Inadl_2, Q8NI35, “below the threshold”; with MPP6, Q9NZW5 it was “below the threshold”; with GRID2IP_2, A4D2P6, 3.84; in the assay with GOPC, Q9HD26 it was 3.81. In addition, the pKd entry with DLG3_3, Q92796 was “below the threshold”; with GRASP, Q7Z6J2, 4.34; with MAGI1_2, Q96QZ7, “below the threshold”; with PARD3B_1, Q8TEW8, “below the threshold”; with APBA1_1, Q02410, “below the threshold”; with DLG2_3, Q15700, “below the threshold”. Further, the negative-log Kd (pKd) result was “below the threshold” with HTRA3, P83110; “below the threshold” with APBA2_2, Q99767; “below the threshold” with Inadl_1, Q8NI35; 3.62 in the assay with TJP1_2, Q07157; 4.77 in the assay with DLG3_2, Q92796; “below the threshold” with GRIP1_2, Q9Y3R0. The pKd entry with MPDZ_12, O75970 was “below the threshold”; with DLG5_1, Q8TDM6, “below the threshold”; in the assay with LAP2, Q96RT1, 3.61; with GRIP1_3, Q9Y3R0, “below the threshold”; in the assay with SCRIB_2, Q14160, 4.21; in the assay with SHANK1, Q9Y566, “below the threshold”.
